Target: T1, ΔN-CXCL13 (murine CXCL13 residues 31-109 with the initiating methionine) (murine)
T1 chain: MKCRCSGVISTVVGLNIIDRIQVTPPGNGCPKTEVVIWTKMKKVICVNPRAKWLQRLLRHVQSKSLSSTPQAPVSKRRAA
Assay: NMR titration; [15N,1H] correlation spectra at different protein concentrations; monomer and dimer signals in slow exchange; KD of dimer to monomers from integrated signals of monomer and dimer; T1/T2 relaxation; 20 mM phosphate, 100 mM NaCl, pH 6, 298 K; addition of HS tetrasaccharide dp4 (50 µM on 50 µM ΔN-CXCL13) increases the dimer signals
Details: both partners purified

- Kd: 300 ± 100 µM
- stoichiometry N: 2
B1: ΔN-CXCL13 (murine CXCL13 residues 31-109 with the initiating methionine) (domain or fragment)
chain: MKCRCSGVISTVVGLNIIDRIQVTPPGNGCPKTEVVIWTKMKKVICVNPRAKWLQRLLRHVQSKSLSSTPQAPVSKRRAA
modifications: initiating Met kept (piece 1); paper residue numbers are mature, offset +21 to the precursor; two disulfides expected from the chemokine fold / initiating Met kept (piece 1); paper residue numbers …

Reference: article PMC5666081, “Solution structure of CXCL13 and heparan sulfate binding show that GAG binding site and cellular signalling rely on distinct domains” (Open Biology, 2017)
